Biological target: human alpha-thrombin (Homo sapiens, UniProt P00734;P00734 328-363;364-622)
Assay: SEC mobility shift

B1: apt29-rssp (tba29-rssp) (structured_DNA)
DNA: TTTTTTAGTCCGTGGTAGGGCAGGTTGGGGTGACT
modifications: 5'-C6-NH2, DBCO; conjugated by azide-DBCO cycloaddition to spider silk protein eADF4(C16)
Q: Does B1 bind?
A: Result: binds

B2: apt15-rssp (tba15-rssp) (structured_DNA)
DNA: TTTTTTGGTTGGTGTGGTTGG
modifications: 5'-C6-NH2, DBCO; conjugated by azide-DBCO cycloaddition to spider silk protein eADF4(C16)
Q: Does B2 bind?
A: Result: binds
